Measurements: the Human Domainome abundance scans (Beltran et al. 2025)
± gives the uncertainty stated by the source.

B1: Heterogeneous nuclear ribonucleoprotein U-like protein 2, residues 1 to 40; numbered along this chain, Q1KMD3 (parent)
chain: MEVKRLKVTELRSELQRRGLDSRGLKVDLAQRLQEALDAE

Variants of: B1
Test: abundance fitness (aPCA) (normalised: wild type 0, dead -1); higher = more abundant; growth selection in yeast, the domain comes from the species named
Conditions: Homo sapiens

| Variant | abundance fitness |
| --- | --- |
| T9V | -0.153 ± 0.056 |
| T9W | -0.103 ± 0.06 |
| T9Y | -0.135 ± 0.14 |
| E10A | -0.336 ± 0.056 |
| E10K | -1.08 ± 0.13 |
| E10L | -0.641 ± 0.057 |
| E10M | -0.329 ± 0.072 |
| E10N | -0.726 ± 0.25 |
| E10P | -0.758 ± 0.088 |
| E10Q | -0.023 ± 0.098 |
| E10R | -0.619 ± 0.051 |
| E10S | -0.512 ± 0.066 |
| E10T | -0.305 ± 0.079 |
| E10V | -0.376 ± 0.059 |
| E10W | -0.599 ± 0.066 |
| E10Y | -0.869 ± 0.21 |
| L11A | -0.458 ± 0.052 |
| L11C | -0.988 ± 0.15 |
| L11D | -0.436 ± 0.085 |
| L11E | -0.336 ± 0.056 |
| L11F | -0.574 ± 0.16 |
| L11G | -0.502 ± 0.046 |
| L11H | -0.827 ± 0.22 |

| Variant | abundance fitness |
| --- | --- |
| L11I | -0.109 ± 0.09 |
| L11K | -0.495 ± 0.074 |
| L11M | -0.055 ± 0.062 |
| L11N | -0.435 ± 0.091 |
| L11P | -0.584 ± 0.065 |
| L11Q | -0.448 ± 0.071 |
| L11R | -0.641 ± 0.049 |
| L11S | -0.438 ± 0.059 |
| L11T | -0.436 ± 0.082 |
| L11V | -0.375 ± 0.059 |
| L11W | -1.08 ± 0.071 |
| R12A | -0.212 ± 0.053 |
| R12D | -0.403 ± 0.073 |
| R12E | -0.147 ± 0.058 |
| R12F | -0.574 ± 0.12 |
| R12G | -0.507 ± 0.052 |
| R12H | -0.339 ± 0.15 |
| R12L | -0.495 ± 0.06 |
| R12P | -0.751 ± 0.081 |
| R12Q | 0.036 ± 0.07 |
| R12S | -0.332 ± 0.065 |
| R12T | -0.165 ± 0.065 |
| R12V | -0.112 ± 0.06 |

| Variant | abundance fitness |
| --- | --- |
| R12W | -0.845 ± 0.066 |
| S13A | 0.153 ± 0.052 |
| S13E | 0.262 ± 0.066 |
| S13F | -0.04 ± 0.13 |
| S13G | 0.035 ± 0.052 |
| S13I | 0.039 ± 0.1 |
| S13K | 0.085 ± 0.07 |
| S13L | 0.093 ± 0.058 |
| S13M | -0.058 ± 0.15 |
| S13N | 0.016 ± 0.087 |
| S13P | -0.385 ± 0.1 |
| S13Q | 0.146 ± 0.062 |
| S13R | 0.055 ± 0.05 |
| S13T | 0.022 ± 0.059 |
| S13V | -0.006 ± 0.056 |
| S13W | -0.033 ± 0.055 |
| S13Y | 0.065 ± 0.1 |
| E14A | -0.34 ± 0.053 |
| E14C | -0.489 ± 0.069 |
| E14D | -0.635 ± 0.075 |
| E14F | -0.752 ± 0.14 |
| E14G | -0.743 ± 0.054 |
| E14H | -0.512 ± 0.11 |

| Variant | abundance fitness |
| --- | --- |
| E14I | -0.551 ± 0.1 |
| E14K | -0.782 ± 0.08 |
| E14L | -0.311 ± 0.058 |
| E14M | -0.274 ± 0.081 |
| E14P | -0.953 ± 0.11 |
| E14R | -0.752 ± 0.051 |
| E14S | -0.6 ± 0.075 |
| E14T | -0.869 ± 0.077 |
| E14V | -0.845 ± 0.061 |
| E14W | -0.942 ± 0.09 |
| E14Y | -0.634 ± 0.088 |
| L15A | -0.494 ± 0.053 |
| L15C | -0.25 ± 0.079 |
| L15D | -0.344 ± 0.069 |
| L15E | -0.491 ± 0.054 |
| L15G | -0.614 ± 0.049 |
| L15K | -0.651 ± 0.095 |
| L15M | -0.389 ± 0.069 |
| L15P | -0.312 ± 0.075 |
| L15Q | -0.405 ± 0.073 |
| L15R | -0.815 ± 0.054 |
| L15T | -0.586 ± 0.13 |
| L15W | -1.04 ± 0.068 |

| Variant | abundance fitness |
| --- | --- |
| L15Y | -0.582 ± 0.12 |
| Q16A | -0.047 ± 0.053 |
| Q16C | -0.299 ± 0.09 |
| Q16D | -0.079 ± 0.082 |
| Q16E | 0.098 ± 0.055 |
| Q16G | -0.171 ± 0.048 |
| Q16H | -0.178 ± 0.24 |
| Q16I | 0.169 ± 0.12 |
| Q16L | -0.09 ± 0.068 |
| Q16M | -0.013 ± 0.079 |
| Q16N | -0.074 ± 0.13 |
| Q16R | -0.104 ± 0.054 |
| Q16S | -0.032 ± 0.071 |
| Q16T | -0.03 ± 0.061 |
| Q16V | -0.077 ± 0.059 |
| Q16W | -0.539 ± 0.058 |
| Q16Y | -0.405 ± 0.39 |
| R17A | 0.053 ± 0.053 |
| R17C | -0.282 ± 0.083 |
| R17D | -0.218 ± 0.12 |
| R17E | -0.121 ± 0.062 |
| R17G | -0.252 ± 0.056 |
| R17H | -0.276 ± 0.15 |

| Variant | abundance fitness |
| --- | --- |
| R17I | -0.173 ± 0.095 |
| R17K | 0.112 ± 0.06 |
| R17L | -0.129 ± 0.054 |
| R17M | 0.006 ± 0.058 |
| R17N | -0.77 ± 0.44 |
| R17P | -0.432 ± 0.085 |
| R17Q | 0.008 ± 0.069 |
| R17S | -0.092 ± 0.058 |
| R17T | -0.184 ± 0.07 |
| R17V | -0.219 ± 0.053 |
| R17W | -0.521 ± 0.063 |
| R17Y | -0.455 ± 0.099 |
| R18A | -0.699 ± 0.066 |
| R18C | -0.668 ± 0.092 |
| R18E | -0.571 ± 0.062 |
| R18F | -0.685 ± 0.13 |
| R18G | -0.481 ± 0.052 |
| R18H | -0.726 ± 0.086 |
| R18I | -0.721 ± 0.32 |
| R18K | -0.356 ± 0.088 |
| R18L | -0.228 ± 0.063 |
| R18M | -0.215 ± 0.079 |
| R18P | -0.436 ± 0.097 |

| Variant | abundance fitness |
| --- | --- |
| R18Q | -0.614 ± 0.099 |
| R18S | -0.615 ± 0.067 |
| R18T | -0.627 ± 0.09 |
| R18W | -1.08 ± 0.084 |
| R18Y | -0.652 ± 0.1 |
| G19A | -0.369 ± 0.051 |
| G19C | -0.379 ± 0.11 |
| G19D | -0.006 ± 0.12 |
| G19E | -0.396 ± 0.084 |
| G19H | -0.196 ± 0.084 |
| G19I | -1.12 ± 0.16 |
| G19K | -0.545 ± 0.22 |
| G19L | -0.64 ± 0.061 |
| G19M | -0.676 ± 0.15 |
| G19P | -0.555 ± 0.062 |
| G19Q | -0.178 ± 0.074 |
| G19R | -0.444 ± 0.052 |
| G19S | -0.276 ± 0.061 |
